In paper PMC10404244:

Experiments:
[1] = target: tyrosinated microtubules polymerized from purified porcine brain tubulin (porcine) (UniProt P02550); experiment: TIRF microscopy microtubule-binding assay (mean fluorescence intensity); tyrosinated and detyrosinated microtubules held in the same chamber, 2 mM AMP-PNP, HP assay buffer pH 7.0
[2] = target: tyrosinated microtubules polymerized from purified porcine brain tubulin (porcine) (UniProt P02550); experiment: single-molecule TIRF microscopy (landing rate, processive motility); tyrosinated and detyrosinated microtubules held by biotin-streptavidin in the same chamber, motors at single-molecule concentrations, 2 mM ATP, HP assay buffer pH 7.0
[3] = target: tyrosinated microtubules polymerized from purified porcine brain tubulin (porcine) (UniProt P02550); experiment: TIRF microscopy microtubule-binding assay (mean fluorescence intensity); tyrosinated and detyrosinated microtubules held in the same chamber, 2 mM ADP (Fig. 4C: 50 nM motor, 10 min), HP assay buffer pH 7.0
[4] = target: tyrosinated microtubules polymerized from purified porcine brain tubulin (porcine) (UniProt P02550); experiment: single-molecule TIRF microscopy (landing rate, dwell time); tyrosinated and detyrosinated microtubules held in the chamber, single molecules of motors, 2 mM ADP, HP assay buffer pH 7.0
[5] = target: detyrosinated microtubules: porcine brain tubulin treated with carboxypeptidase A (CPA) (porcine) (UniProt P02550); experiment: TIRF microscopy microtubule-binding assay (titration of fluorescence intensity); apparent; motor titrated 0.1–50 nM on held tyrosinated and detyrosinated microtubules, ADP; n = 160 MTs, N = 2
[6] = target: tyrosinated microtubules polymerized from purified porcine brain tubulin (porcine) (UniProt P02550); experiment: as above
[7] = target: detyrosinated microtubules: porcine brain tubulin treated with carboxypeptidase A (CPA) (porcine) (UniProt P02550); experiment: TIRF microscopy microtubule-binding assay (mean fluorescence intensity); tyrosinated and detyrosinated microtubules held in the same chamber, 2 mM ADP (Fig. 4C: 50 nM motor, 10 min), HP assay buffer pH 7.0

human KIF13B CAP-Gly fragment (a.a. 1685–1826), N-terminal sfGFP-StrepII, sequence (Q9NQT8 1685-1826): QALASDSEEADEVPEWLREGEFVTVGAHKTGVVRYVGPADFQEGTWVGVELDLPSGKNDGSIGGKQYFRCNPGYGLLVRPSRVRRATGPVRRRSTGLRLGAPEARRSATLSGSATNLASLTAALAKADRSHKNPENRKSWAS

Substance | fold binding (fluorescence intensity), tyrosinated over detyrosinated microtubules, AMP-PNP [1] | fold landing rate, tyrosinated over detyrosinated microtubules (ATP) [2] | fold binding (fluorescence intensity), tyrosinated over detyrosinated microtubules, ADP [3] | fold dwell time, tyrosinated over detyrosinated microtubules (ADP) [4] | fold landing rate, tyrosinated over detyrosinated microtubules (ADP) [4] | Kd [5] | Kd [6] | fold motor density on microtubules over KIF13B (50 nM, ADP) [7] | fold motor density on microtubules over KIF13B (50 nM, ADP) [3] | fold lower dwell time than full-length KIF13B or KIF13B^Δtail (tyrosinated microtubules, ADP) [4]
full-length human KIF13B (wild type), C-terminal sfGFP-StrepII (from UniProt Q9NQT8 1-1826) (natural protein) | 1.4 fold | 2 fold | 8 fold | 1.3 fold | 2 fold | – | – | – | – | –
full-length human KIF13B K414A, C-terminal sfGFP-StrepII (from UniProt Q9NQT8 1-1826) (natural protein) | – | 2 fold | 2 fold | 1.5 fold | 2 fold | 72.7 nM | 23.7 nM | 11 fold | 3 fold | –
full-length human KIF13B V178Q, C-terminal sfGFP-StrepII (from UniProt Q9NQT8 1-1826) (natural protein) | – | 2 fold | – | – | – | – | – | – | – | –
human KIF13B CAP-Gly fragment (a.a. 1685–1826), N-terminal sfGFP-StrepII (from UniProt Q9NQT8 1685-1826) (domain or fragment) | – | – | – | – | 14 fold | – | – | – | – | 2 to 3 fold
